From the DeepSol protein solubility set come the findings set out here.

The data set can be described thus: soluble on expression in E. coli; label from the status in PepcDB or PDB records.
With “MGSDKIHHHHHHMERTNTTTFKFFSLGGSNEVGRSCHILQYKGKTVMLDAGIHPAYQGLASLPFYDEFDLSKVDILLISHFHLDHAASLPYVMQRTNFQGRVFMTHPTKAIYRWLLRDFVRVTSIGSSSSSMGTKDEGLFSDEDLVDSFDKIETVDYHSTVDVNGIKFTAFHAGHVLGAAMFQIEIAGLRVLFTGDYSREVDRHLNSAEVPPLSSNVLIVESTFGTATHEPRLNRERKLTQLIHSTVMRGGRVLLPVFALGRAQEIMLILDEYWSQHADELGGGQVPIFYASNLAKKCMSVFQTYVNMMNDDIRKKFRDSQTNPFIFKNISYLRNLEDFQDFGPSVMLASPGMLQSGLSRDLLERWCPEDKNLVLITGYSIEGTMAKFIMLEPDTIPSINNPEITIPRRCQVEEISFAAHVDFQENLEFIEKISAPNIILVHGEANPMGRLKSALLSNFASLKGTDNEVHVFNPRNCVEVDLEFQGVKVAKAVGNIVNEIYKEENVEIKEEIAAKIEPIKEENEDNLDSQAEKGLVDEEEHKDIVVSGILVSDDKNFELDFLSLSDLREHHPDLSTTILRERQSVRVNCKKELIYWHILQMFGEAEVLQDDDRVTNQEPKVKEESKDNLTNTGKLILQIMGDIKLTIVNTLAVVEWTQDLMNDTVADSIIAILMNVDSAPASVKLSSHSCDDHDHNNVQSNAQGKIDEVERVKQISRLFKEQFGDCFTLFLNKDEYASNKEETITGVVTIGKSTAKIDFNNMKILECNSNPLKGRVESLLNIGGNLVTPLC”, the “soluble on expression in E. coli” value is recorded as “not soluble”. Regarding “MTKTNLITGFLGSGKTTSILHLLAHKDPAEKWAVLVNEFGEVGIDGALLADSGALLKEIPGGCMCCVNGLPMQVGLNTLLRQGKPDRLLIEPTGLGHPKQILDLLTAPVYEPWIDLRATLCILDPRLLLDQQSVANENFRDQLASADIIIANKTDRATAQSDAALQQWWRQYGGDRQLIHAEHGQIDGKLLDLPRQNLAELPASAAHSHTHASKKGLAALNLPAQQRWRRSLNSGQGHQACGWIFDADTVFDTIGLLEWARLAPVGRVKGVMRIQEGLVRINRQGDDLHIETQSVAPPDSRVELISNTETDWNTLQTALLKLRLATHA”, the “soluble on expression in E. coli” value is “not soluble”. For “MSNKIVTLEINLEPSDNRRLASLCGPFDDNIKHLERRLGVEINHRSDHFTIVGKPHTSAAALDILKTLYVDTAPVRGEIPDIEPEQIHLAIKESGVLEQNTESSIAHGKEVFVKTKKGVIKPRTPNQAQYLVNMVTHDISFGIGPAGTGKTYLAVAAAVDALERQEIRRILLTRPAVEAGEKLGFLPGDLSQKVDPYLRPLYDALFEMLGFERVEKLIERNVIEVAPLAYMRGRTLNDAFIILDESQNTTVEQMKMFLTRIGFNSRAVITGDVTQIDLPRGAKSGLRHAIEVLSEVDDISFNFFQADDVVRHPVVARIVNAYEKWEAQDQKERKEFEKRRREERDAKLLEAAKAELSAQVAATKE” the value was “not soluble”; for “MSLYSNESAIQLISLARSIDQLQKIDSVVSFHDGAQLDALTIANALELPFSLSMGAIVNTRDKQLSRRILREKNLTEVQSAIAENEQDLHDFFKIYPQVNKVIVKPVAGTGSENVRSLESKELETANLDNVYPVLVEQFVEGREFSVEAFMQEGKCHIFAITEKFKDAQSFIETGHLVPARLSSDEHEKIAAFIAKVLPALGVVSGITHSEIMLGEKIELIETHTRVGGDRIFDLVQMTTGIDMYRLQALQSLGLPIGEDELTPKLNGKHACIKFKLNDHPGKKVIRVNGEEEIKNWSGVEDVSITHQAGEVLPQIVNSFDRSASVLVLCDSSEQALSIAEEAIQKLEFVVGEGHHHHHH”, “not soluble”; for “MSLAKNRLRAIPLGGAGEVGRNMWVLEQNDEILVLDCGVMFPEADMLGVDLVLPDITYLRDQKDKIKAIVLTHGHEDHIGAVPYLVPELDFPPIYGTPLTLGMLAGKLKEHRLLDRARLVKMQAGESFTVGSFTIEPFSVAHSIPDTVGLAIDTPVGLAIYLTDWKFDHTPVDGRPTDLVKLSELGRRSPLLLITDCVRVESKGYTPSEQVVGEAFDSIFATAPGRIIVATFASNVSRVQQVIDSAEAYGRKVVVAGRSMENTTRIALELGYLRAQQGTLIRPQEAAGLADDQVAVICTGSQGEPMSALARMANRDYPHVKIKEGDTVVVSATPIPGNEVSVNRVINNLFRLGAEVIYGGSPSSLAVHVSGHAAQEELKMALAILRPEFVVPFHGDYRHMMLYRKLALGMGGLFSESNVIIPENEGHHHHHH”, “not soluble”. In the case of “MGSDKIHHHHHHMKYLPLYPILARYPFLRIASRVFSFNIEDELRKFLDTVEAAKRIVDKAIDGRVEYDRFTDESEFFCLGCEENCYDCQKRGTLEGCDLCMGCFENCSLYYPREAVERFYTNAKLSLLTYIASRMIVSAMEDWVRMRYAVNEASYYSRLLREDVEESGKEPIVRLVAIDLGAKLKGWKMHVSTFVRVSARIKDDKWRLVNRKLRNGWVETTKAEVLRGLEELLRMKLFEKVPVSEAVSEAVRELSRKAKRESEKFAMDLGEVDLNCLPPCMREILSELQRGMNIPHTARFAITSFLLNIGMTVDEIIALFKSAPDFDDEKTRYQVEHIAGERGKGAEYTSPSCDTMRTYSNCVADCRVSHPLIYYKKCKSKS”, the “soluble on expression in E. coli” value is recorded as “not soluble”. For “MKEVLFISEMERGRAEIESRVSNIKTTQDFGYREKIKEKKDASTAYAACISELLLEEKVKKIAVAYDFPIFYSNYLTEAGFTIVPVKSPFRKMRSVKGPEEIEAIKYAQMAGEKAMEAAITLIADAEEKDGVLYFEGQVLTGAKVNSVIDHTLLDFGCEAEETIVSCGEDTSNPHGTTEGPLRANAPIILDIFPRSKKKRYFADMTRTVLRGEASEKLKEMYETVLVAQQKALEMVKPGIHSSEIHRAVCDLFEARGYHTYRSGSKAGFTHSTGHGVGLDIHELPSVGESGVLLETGNVITIEPGLYYPGIGGIRLEDMVLVTKTGYENFTGLEKKFVLKSFYNLEHHHHHH” the value was “not soluble”; for “MSLATLKDVAELAGVGLSTASRAISGKGPVSADAAARVKAAIAELNFRPSSIGRAMATQQLGIIGLFVPTFFGSYYGTILKQTDLELRAVHRHVVVATGCGESTPREQALEAVRFLIGRDCDGVVVISHDLHDEDLDELHRMHPKMVFLNRAFDALPDASFCPDHRRGGELAAATLIEHGHRKLAVISGPFTASDNVERLDGFFDELARHGIARDSVPLIESDFSPEGGYAATCQLLESKAPFTGLFCANDTMAVSALARFQQLGISVPGDVSVIGYDDDYSAAYAAPALTSVHIPTAELTQNAVRWLINQCYGTKWEIFREFPVTVSMRASVAREGHHHHHH”, “soluble”. For “MGSDKIHHHHHHMKKIAIFLPDLRAGGAEKVALLLSNEFVQKGCAVDVILCTAHGEFLSELDTRINVVDLKSPRLRNAFFPLLRYLKAERPDVLLALMWPLTLLAVTAFKFAKLPGRVVVSDHTTFSQAPLLKKKSTRIFFKLSLPMVYSFANARLAVSEGVANDLATLGNIKRSSITVLHNPVSSDTMRFTKEQNEESWQGFSGKKIVAVGALKWEKDYPTLLKAFALLLKKENAYLSIVGQGTLLSELEAIAEQLGIRKQVNFAGFSTMPSAWMASADLLVLSSSCEGFGNVIVESLDVGTAVVSTDCKSGPREILCDGKYGKLVPVGDVDALAQAMVESLNEQHDMDALKLRAAKFSVDKIAKQYLEVFR” the value was “not soluble”; for “PSPGGQMHAGISSFQQSNSSGTYGPQMSQYGPQGNYSRPPAYSGVPSASYSGPGPGMGISANNQMHGQGPSQPCGAVPLGRMPSAGMQNRPFPGNMSSMTPSSPGMSQQGGPGMGPPMPTVNRKAQEAAAAVMQAAANSAQSRQGSFPGMNQSGLMASSSPYSQPMNNSSSLMNTQAPPYSMAPAMVNSSAASVGLADMMSPGESKLPLPLKADGKEEGTPQPESKSKDSYSSQGISQPPTPGNLPVPSPMSPSSASISSFHGDESDSISSPGWPKTPSSPKSSSSTTTGEKITKVYELGNEPERKLWVDRYLTFMEERGSPVSSLPAVGKKPLDLFRLYVCVKEIGGLAQVNKNKKWRELATNLNVGTSSSAASSLKKQYIQYLFAFECKIERGEEPPPEVFSTGDTKKQPKLQPPSPANSGSLQGPQTPQSTGSNSMAEVPGDLKPPTPASTPHGQMTPMQGGRSSTISVHDPFSDVSDSSFPKRNSMTPNAPYQQGMSMPDVMGRMPYEPNKDPFGGMRKVPGSSEPFMTQGQMPNSSMQDMYNQSPSGAMSNLGMGQRQQFPYGASYDRRHEPYGQQYPGQGPPSGQPPYGGHQPGLYPQQPNYKRHMDGMYGPPAKRHEGDMYNMQYSSQQQEMYNQYGGSYSGPDRRPIQGQYPYPYSRERMQGPGQIQTHGIPLQMMGGPLQSSSSEGPQQNMWAARNDMPYPYQNRQGPGGPTQAPPYPGMNRTDDMMVPDQRINHESQWPSHVSQRQPYMSSSASMQPITRPPQPSYQTPPSLPNHISRAPSPASFQRSLENRMSPSKSPFLPSMKMQKVMPTVPTSQVTGPPPQPPPIRREITFPPGSVEASQPVLKQRRKITSKDIVTPEAWRVMMSLKSGLLAESTWALDTINILLYDDSTVATFNLSQLSGFLELLVEYFRKCLIDIFGILMEYEVGDPSQKALDHNAARKDDSQSLADDSGKEEEDAECIDDDEEDEEDEEEDSEKTESDEKSSIALTAPDAAADPKEKPKQASKFDKLPIKIVKKNNLFVVDRSDKLGRVQEFNSGLLHWQLGGGDTTEHIQTHFESKMEIPPRRRPPPPLSSAGRKKEQEGKGDSEEQQEKSIIATIDDVLSARPGALPEDANPGPQTESSKFPFGIQQAKSHRNIKLLEDEPRSRDETPLCTIAHWQDSLAKRCICVSNIVRSLSFVPGNDAEMSKHPGLVLILGKLILLHHEHPERKRAPQTYEKEEDEDKGVACSKDEWWWDCLEVLRDNTLVTLANISGQLDLSAYTESICLPILDGLLHWMVCPSAEAQDPFPTVGPNSVLSPQRLVLETLCKLSIQDNNVDLILATPPFSRQEKFYATLVRYVGDRKNPVCREMSMALLSNLAQGDALAARAIAVQKGSIGNLISFLEDGVTMAQYQQSQHNLMHMQPPPLEPPSVDMMCRAAKALLAMARVDENRSEFLLHEGRLLDISISAVLNSLVASVICDVLFQIGQL”, “soluble”; for “MTLDESCKILNIEESKGDLNMDKINNRFNYLFEVNDKEKGGSFYLQSKVYRAAERLKWELAQREK”, “soluble”. Regarding “MYKPITFSLKYIFKTAGKVEVQGREKLPEGGPYVVACTHTSFMDVLMLATGMYPTEIHYMAKKELFEGKFKNWFFKNVNAFPVDRANPGPSTLKIPSRLLKEGKVVGIFPSGTRSTEDVSLKAGAVTIAMRSNVPLIPAAYIGPSSVKELIKGKRAQLIFGDPIQIDAEEQIDRKTAMKMMTDQLNEKFEGLKEALQSNQK”, the “soluble on expression in E. coli” value is “not soluble”.

Consider “MAILRLEPQQLYSVADLENMPCKSTKELPPIDEIVGQERAQKAVEFAMSIKEKGYNIYAIGQNGLGKRTMILRYLNRHQHDADALFDWCYVANFEDTRTPKVLKLPCGIGNKLRVDIEALMGKLLNALPLAFDNEMYFSRADRLKNQLANKQQNELDRISREAKEHGISLTITSQGDYQFVAMNGDELHTEESFDALSKKEQEQFSDSIDALEVSLRSMVRELTEWEDTYSDKIKKLNDEVTLDVITHFIKKLKVDYSEYSEIKTYLTELQKDIVENADIFLDQSGEQGEIAAASLDKKLPRRYKVNVLVSRNNSDFPIVVEENPNYHSLFGSIETATFKGTVFTDFSLIRAGSLHKANGGVLLMDAQKVLEQPYVWDGLKRALRARQLSFTSLEKEVTLTGAVSLDPEPIPLDIKIILFGDYRTYQLLQHYDPEFSELFRVTADFEDEMKRTPESELHYARFISSVVHDNNMLHCDRKAIARIIEYSSRLSGDQSKLSLHSANIANLLRESNYVARQANSNMIRIGHVEEAMKNQEMRVSRLRDSVMETFLNGTT”, for which the “soluble on expression in E. coli” value was “not soluble”. Consider “MMCTAKKCGIRFQPPAIILIYESEIKGKIRQRIMPVRNFSKFSDCTRAAEQLKNNPRHKSYLEQVSLRQLEKLFSFLRGYLSGQSLAETMEQIQRETTIDPEEDLNKLDDKELAKRKSIMDELFEKNQKKKDDPNFVYDIEVEFPQDDQLQSCGWDTESADEF”, for which the “soluble on expression in E. coli” value was “soluble”.
